In PMC6836825, “K^+ Channel-SEC11 Binding Exchange Regulates SNARE Assembly for Secretory Traffic^1” (Plant Physiology, 2019):
Each block holds one binder with its values, some of them ahead of it.

Target: T1, Flag3-SNAP33-6His (Arabidopsis thaliana, UniProt Q9S7P9 1-300)
T1 construct: Qbc-SNARE SNAP33, Arabidopsis thaliana, At5G61210; not shown: Flag3, N-terminal, kept; 6His, C-terminal, kept
T1 sequence (looked up): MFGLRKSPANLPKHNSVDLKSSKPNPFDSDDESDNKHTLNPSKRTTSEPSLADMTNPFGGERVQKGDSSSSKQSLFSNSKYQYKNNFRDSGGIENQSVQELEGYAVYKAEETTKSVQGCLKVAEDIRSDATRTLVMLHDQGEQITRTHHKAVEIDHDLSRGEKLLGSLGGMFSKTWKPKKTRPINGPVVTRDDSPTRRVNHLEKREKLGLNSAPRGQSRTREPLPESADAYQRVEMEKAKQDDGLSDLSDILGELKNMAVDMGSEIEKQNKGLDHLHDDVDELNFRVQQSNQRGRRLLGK
Assay: pull-down; KC1^67–91-Flag3-StrepII or KAT1^1–63-Flag6-StrepII immobilised on Strep-Tactin resin; one prey at a time in 3-fold excess; overnight at 4°C; SDS-PAGE, Coomassie
Details: both partners purified

binding result: binds
B1: KC1^67–91-Flag3-StrepII (domain or fragment, Arabidopsis thaliana, UniProt P92960 67-91, looked up)
chain: IEDDNPSSKPFIVLHFDRRYRLWEL
notes: KC1 K+ channel subunit, Arabidopsis thaliana, At4g32650, N-terminal cytosolic domain residues 67-91; also called KC1^67–91 peptide; KC1^67–91-3flag-StrepII; not shown: Flag3, C-terminal, kept; StrepII, C-terminal, kept

binding result: binds
B2: KAT1^1–63-Flag6-StrepII (domain or fragment, Arabidopsis thaliana, UniProt Q39128 1-63, looked up)
chain: MSISWTRNFFERFCVEEYNIDTIKQSSFLSADLLPSLGARINQSTKLRKHIISPFNPRYRAWE
notes: KAT1 K+ channel, Arabidopsis thaliana, At5g46240, N-terminal cytosolic domain residues 1-63; also called KAT1^1–63 peptide; KAT1^1–63-6flag-StrepII; not shown: Flag6, C-terminal, kept; StrepII, C-terminal, kept
